Measurements from patent US20210301026A1 (ULTRAHUMAN TWELVE, published 2021).
Substitutions are numbered along the chain they refer to. Numbers in names are those of the source. Read-outs that look alike come from different tables or passages of the source.

B1: 26B07 (antibody, human IgG4, V domains shown)
VH: QVQLVQSGAEVKKPGSSVKVSCKASGYTFSSYYMIWVRQAPGQGLEWMGDINPYNGGANYAQKFQGRVTITADESTSTAYMELSSLRSEDTAVYYCAREGPYFSNLYVMDYWGQGTLVTVSS
VL: EIVLTQSPATLSLSPGERATLSCRASQSVEYQGDNYLNWYQQKPGQAPRLLIYAASNRATGIPARFSGSGSGTDFTLTISSLEPEDFAVYYCQLSNEDLLTFGGGTKVEIK
notes: Library-derived clone, tested as human IgG4(S228P)/Ckappa IgG; framework residue limits counted on the grafts
B2: humanized anti-CSF1R antibody 0301 (hu0301) (antibody, human IgG4, V domains shown)
VH: B1 VH with S30T, S31D, Y32N, A58T, N59T, Y60F, A61N, Q65K, E74K, G100S
VL: B1 VL with R24K, E30D, Q32D, L37M, R58L, A59E, T60S, Q93H, L100S
notes: also called mAb-1
B3: 29H09 (antibody, human IgG4, V domains shown)
VH: B1 VH with S30T
VL: B1 VL with E30S, Q32E, D34E
notes: as for B1
B4: 30E06 (antibody, human IgG4, V domains shown)
VH: B1 VH with S30T, A58T, N59T
VL: B1 VL with E30S, Q32E, D34E, N38A, R58L
notes: Library-derived clone; tested as human IgG4(S228P) / human Ckappa IgG; also called 30E6; mAb-3

What was measured:
[1] = target: T1, human CSF1R, membrane-presented on cells (human, UniProt P07333 20-972); assay: flow cytometry on HEK-293 cells expressing human CSF1R, MFI
T1 construct: HEK-293 cells transiently transfected with human CSF1R (flow cytometry); the native receptor on primary human monocytes in the proliferation assay; also called human CSF1R+ HEK-293 cells; CSF1R on primary human CD14+ monocytes

[2] = target: T2, human CSF1R human Fc tagged recombinant protein (human, UniProt P07333 20-517); assay: direct titration ELISA on coated human CSF1R-Fc, IgG4(S228P) format, OD 450 nm
T2 construct: also called human CSF1R-Fc
Protocol: (§1) Binding and cross-reactivity of the lead panel to the recombinant proteins was initially assessed by binding ELISA. The human CSF1R human Fc tagged recombinant protein and the cynomolgus monkey CSF1R human Fc tagged recombinant protein were coated to the surface of MaxiSorp™ flat-bottom 96 well plate at 1 μg/ml. The purified IgG samples were titrated in two fold serial dilutions starting from 500 nM to 0.008 nM and allowed to bind to the coated antigens. The Fabs were detected using mouse anti-c-myc antibody followed by donkey anti-mouse IgG conjugated to horseradish peroxidase. The IgGs were detected using the mouse anti-human IgG conjugated to horseradish peroxidase. Binding signals were visualized with 3,3′,5,5′-Tetramethylbenzidine Substrate Solution (TMB) and the absorbance measured at 450 nm.

[3] = target: T3, monomeric human CSF1R ectodomain protein (human, UniProt P07333 20-517); assay: SPR Biacore, IgG captured, monomeric CSF1R analyte
T3 construct: also called biotinylated monomeric human CSF1R
Protocol: (§2) Affinity (KD) of purified IgGs was determined via SPR with antigen in-solution on a Biacore 3000 (GE). A mouse anti-human antibody (CH1 specific) was immobilized on a CM5 Sensor Chip to a level of 2000 RU in acetate buffer at pH 4.5 using amine coupling following the Wizard instructions for two channels. One channel was used for background signal correction. The standard running buffer HBS-EP pH 7.4 was used. Regeneration was performed with a single injection of 10 μl of 10 mM Glycine at pH 1.5 at 20 μl/minute. IgG samples were injected for 2 minutes at 50 nM at 30 μl/min followed by and off-rate of 60 seconds. The monomeric ectodomain protein (human CSF1R or cynomolgus monkey CSF1R) was injected in two fold serial dilutions from 100 nM down to 3.1 nM, for 2 minutes at 30 μl/min followed by an off-rate of 300 seconds. The obtained sensorgrams were analysed using the Biacore 3000 evaluation (BIAevaluation) software. The KD was calculated by simultaneous fitting of the association and dissociation phases to a 1:1 Langmuir binding model.
(§3) Biacore analyses of binding affinity were performed for all IgGs to solution-phase, monomeric human and cyno CSF1R proteins (Table 6). […] Affinity differentials of less than 3-fold between human and cyno target orthologs are highly beneficial in pre-clinical drug development analyses as they allow more accurate design and interpretation of e.g. monkey safety, PK and PD modelling experiments.

[4] = target: T4, monomeric cynomolgus monkey CSF1R ectodomain protein (cynomolgus monkey, UniProt P07333 20-517 (human entry)); assay: SPR Biacore, IgG captured, monomeric CSF1R analyte
T4 construct: also called monomeric cyno CSF1R; Cyno CSF1R
T4 chain: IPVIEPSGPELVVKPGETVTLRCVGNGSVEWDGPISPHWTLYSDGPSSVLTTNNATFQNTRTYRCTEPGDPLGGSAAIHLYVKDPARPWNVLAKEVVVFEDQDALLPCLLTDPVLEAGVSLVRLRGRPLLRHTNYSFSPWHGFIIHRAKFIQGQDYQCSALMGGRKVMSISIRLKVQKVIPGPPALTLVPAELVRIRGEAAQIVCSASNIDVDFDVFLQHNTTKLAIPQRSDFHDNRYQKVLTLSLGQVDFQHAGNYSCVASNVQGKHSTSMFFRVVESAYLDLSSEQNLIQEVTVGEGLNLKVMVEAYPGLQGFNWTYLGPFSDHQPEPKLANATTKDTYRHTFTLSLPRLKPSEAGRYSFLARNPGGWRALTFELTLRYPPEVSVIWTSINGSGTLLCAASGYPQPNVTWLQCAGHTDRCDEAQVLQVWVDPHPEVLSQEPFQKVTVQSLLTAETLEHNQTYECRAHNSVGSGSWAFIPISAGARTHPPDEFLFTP
Protocol: as §2, §3

[5] = target: T5, cynomolgus monkey CSF1R human Fc tagged recombinant protein (cynomolgus monkey, UniProt P07333 20-517 (human entry), limits assumed); assay: direct titration ELISA on coated cyno CSF1R-Fc, IgG4(S228P) format, OD 450 nm
T5 construct: also called cyno CSF1R-Fc
T5 chain: T4 chain
Protocol: as §1

[6] = target: T3, monomeric human CSF1R ectodomain protein; assay: AlphaScreen competition with mu0301 IgG4(S228P) for biotinylated monomeric human CSF1R
Protocol: The AlphaScreen assay (Perkin Elmer) was performed in a 25 μl final volume in 384-well white microtiter plates (Greiner). The reaction buffer contained 1×PBS pH 7.3 (Oxoid, Cat. nr. BR0014G) and 0.05% (v/v) Tween® 20 (Sigma, Cat. nr. P9416). Purified IgG samples were titrated in three fold serial dilutions starting at 500 nM final concentration and incubated with biotinylated human CSF1R for 20 minutes at room temperature. […] The emission of light was measured in the EnVision multilabel plate reader (Perkin Elmer) and analysed using the EnVision manager software. Values were reported as Counts Per Second (CPS) and corrected for crosstalk. The EC50 values were calculated using the […] in GraphPad Prism software (GraphPad Software, La Jolla, Calif.).

[7] = target: T3, monomeric human CSF1R ectodomain protein; assay: SPR Biacore, IgG captured, monomeric CSF1R analyte; remark: listed apart in the source
Protocol: as §2

[8] = target: T4, monomeric cynomolgus monkey CSF1R …; assay: SPR Biacore, IgG captured, monomeric CSF1R analyte
Protocol: as §2

human insulin = target: T6, human insulin (human, UniProt P01308 25-54; P01308 90-110, limits assumed); assay: ELISA on human insulin (development risk, polyreactivity), binding score
T6 construct: Coated antigen of the polyreactivity ('PK-risk indicator') ELISA
T6 sequence (P01308 25-54 limits assumed, chain 1 of 2): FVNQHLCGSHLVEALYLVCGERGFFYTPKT
T6 sequence (P01308 90-110 limits assumed, chain 2 of 2): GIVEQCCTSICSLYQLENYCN

[9] = target: T4, monomeric cynomolgus monkey CSF1R …; assay: SPR Biacore; KD on monomeric cyno CSF1R against KD of the same antibody on monomeric human CSF1R as reference
Protocol: as §2

[10] = target: T5, cynomolgus monkey CSF1R human Fc tagged …; assay: direct titration ELISA on coated cyno CSF1R-Fc, IgG4(S228P) format, OD 450 nm
Protocol: as §1

[11] = target: T4, monomeric cynomolgus monkey CSF1R …; assay: SPR Biacore; KD on monomeric cyno CSF1R against KD of the same clone on monomeric human CSF1R as reference
Protocol: as §2

Binder	EC50 (read off the curve) [1] [nM]	EC50 (read off the curve) [2] [nM]	Kd [3] [nM]	koff [3] [s⁻¹]	kon [3] [M⁻¹ s⁻¹]	Kd [4] [nM]	koff [4] [s⁻¹]	kon [4] [M⁻¹ s⁻¹]	EC50 (read off the curve) [5] [nM]	IC50 [6] [nM]	Kd [7] [nM]	koff [7] [s⁻¹]	kon [7] [M⁻¹ s⁻¹]	Kd [8] [nM]	koff [8] [s⁻¹]	kon [8] [M⁻¹ s⁻¹]	binding result (human insulin)	human/cyno affinity differential [9] [fold]	EC50 (read off the curve) [10] [nM]	human/cyno affinity differential [11] [fold]
B1	~1	~0.08	0.29	0.00042	1.5e+06	0.85	0.00026	310000	~0.09	2.56	–	–	–	–	–	–	–	–	–	–
B2	~1	–	0.21	0.00047	2.3e+06	0.66	0.00033	500000	~0.08	2.38	0.21	0.00047	2.3e+06	0.66	0.00033	500000	no binding	> 3	~0.07	–
B3	–	–	0.19	0.00034	1.8e+06	0.42	0.00023	550000	–	2.16	–	–	–	–	–	–	–	–	–	< 3
B4	–	–	0.11	0.00019	1.9e+06	0.25	0.00014	570000	–	1.53	–	–	–	–	–	–	–	–	–	< 3
